Assay results from paper PMC10024333 (Iranian Journal of Pharmaceutical Research : IJPR, 2022).

Biological target: T1, Trx-CD20 (thioredoxin-tagged CD20/G4S cassette: Trx, ECL1, (G4S)3 linker, ECL2, C-terminal His-tag) (Homo sapiens, UniProt P11836)
T1 chain: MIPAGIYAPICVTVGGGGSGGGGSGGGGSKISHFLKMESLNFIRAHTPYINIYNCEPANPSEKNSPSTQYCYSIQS
Experiment: ELISA

Ka: 2.66e+12 M⁻¹
B1: Zytux (rituximab, Aryogen Pharmed, Iran) (antibody, V domains shown)
VH: QVQLQQPGAELVKPGASVKMSCKASGYTFTSYNMHWVKQTPGRGLEWIGAIYPGNGDTSYNQKFKGKATLTADKSSSTAYMQLSSLTSEDSAVYYCARSTYYGGDWYFNVWGAGTTVTVSA
VL: QIVLSQSPAILSASPGEKVTMTCRASSSVSYIHWFQQKPGSSPKPWIYATSNLASGVPVRFSGSGSGTSYSLTISRVEAEDAATYYCQQWTSNPPTFGGGTKLEIK
